Experimental data as given in patent US7265091B2, “Methods and compositions for treating male erectile dysfunction” (The Regents of the University of California, priority 2000, dated 2007).

Legend:
[1] = tested on: venogenic erectile dysfunction in castrated rats; assay: Pharmacologic cavernosometry, prevention trial in castrated rats (Experiment 2); type: in vivo, rat; conditions: castrated rats treated at castration, cavernosometry 9 weeks after castration
From the text: For the prevention trial of VEGF in rats with venogenic erectile ED, adult males were castrated and immediately treated with hormone, intracavernosal VEGF. […] Control animals received an silastic implant containing saline (n=3), an intracavernous injection of normal saline (n=3) or an […] transfection vector expressing lacZ reporter gene without the VEGF gene (AAV-LacZ, n=11).
A 1.5 cm oblique incision was made in the lower abdominal skin extending from the midline just above the penile hilum to below the level of the glans about 1 cm lateral to the midline. The skin was sharply dissected from the anterior surface of the penis and then the penis was retracted anteriorly using a towel clamp placed around it atraumatically with the foreskin left intact. Using blunt dissection the penile base and crura were exposed. The ischiocavernosus muscles were sharply dissected off the anterior surface of the crus until the white of the tunica albuginea of the corpora cavernosa was identified. The crus was then gently cannulated using a 23 gage butterfly needle, and saline flush with a visual erectile response was used to confirm that the needle tip was truly intracavernosal. The intracavernosal injections were then administered with either VEGF protein (Calbiochem, La Jolla, Calif. #676472) at the dosage 4 ug/injection (in 0.1 cc PBS with 0.1% BSA), AAV-VEGF (10^10 viral particles in 0.1 cc NS), AAV-LacZ (10^10 viral particles in 0.1 cc NS), or 0.1 ml NS alone. The AAV-VEGF and AAV-LacZ constructs were a generous gift from Dr. Yuet W. Kan (Howard Hughes Medical Research Institute, San Francisco, Calif.).^19,20 Following injection, the needle was left in place for 5 minutes and then removed to allow the medication to diffuse throughout the cavernosal space. Immediately thereafter, pinpoint electrocautery was applied to the needle hole for hemostasis and then the wound was closed and the animal recovered as above.
(§1) Following castration, testosterone- or saline-filled silastic implants were placed in the subcutaneous tissue of the anterior abdominal wall, as previously described.^17 Implants were prepared using sterile silastic tubing (Dow Coming, Midland, Mich. #602-265, inner diameter 0.062″) that was filled with testosterone propionate powder (Sigma Chemical, St. Louis, Mo.) with the aid of wall suction.
To perform pharmacologic cavemosometry, both the right and left crura were separately cannulated using 23 gauge butterfly needles as described above. One cannula was flushed with sterile heparinized saline (100 U heparin/ml NS) and attached to a pressure detector for continuous intracorporal pressure (ICP) monitoring as previously described.^11 The contralateral cannula was attached to an infusion pump (Harvard Pump, Southwick, Mass. #55-2222), filled with sterile dilute heparinized saline (20 U heparin/ml NS). The baseline ICP was recorded (flaccid ICP) and then a dose of papavarine (1 mg in 0.1 cc NS) was administered through the infusion cannula. Five minutes was allowed for the papavarine to diffuse throughout the corpora and then the infusion cannula was flushed with heparinized saline and the pressure monitor cannula vented to normalize ICP after flushing. After 5 minutes more, the ICP was again recorded (ICP after papavarine) and the infusion started. An infusion rate of 0.05 ml/min was started and increased (by 0.05 ml/min every 10 seconds) until the ICP started to rise. Subsequent increases in inflow rate were made only after the ICP reached a plateau pressure. By slowly adjusting the inflow rate, an intracorporal pressure of 100 cm H2O (erectile pressure) was reached and the infusion rate required to maintain this pressure recorded (the maintenance rate). After this pressure was steady for 20 seconds, the infusion was terminated and the change in ICP over the subsequent 60 seconds was recorded (the drop rate).

[2] = tested on: penile smooth muscle (alpha actin); assay: Alpha-smooth muscle actin immunohistochemistry of rat penis with image analysis; type: in vivo; conditions: castrated rats
Protocol: Frozen sections were cut at 10 microns, adhered to charged slides, air dried for 15 minutes then rehydrated with 0.05M PBS for 5 minutes. […] The serum solution was drained and then sections were incubated for 60 minutes with mouse monoclonal anti-alpha-smooth muscle actin (Sigma, St. Louis, Mo.) at a dilution of 1:4000 in PBS. […] Immunochemistry was performed in penile tissues from 4 rats randomly chosen from each subgroup.
Cross-sectional micrographs of the rat penis at the proximal shaft were examined after immunohistochemistry for alpha actin. Alpha actin, a marker for penile smooth muscle, stains brown and can be seen surrounding the sinusoidal spaces. […] Computerized image analysis with Adobe Photoshop was used to quantify the area of immunostaining by counting the number of digitized pixels corresponding to the area of brown staining, thereby providing some numerical comparison of the quantity of smooth muscle in each specimen.

[3] = tested on: dorsal nerve, intracavernous smooth muscle cells and endothelial cells; assay: Transmission electron microscopy of penile tissue (Example 2); type: in vivo, rat; conditions: castrated rats, testosterone replacement
From the text: Thick sections were cut and stained with toluidine blue to select specific areas for thin sectioning. Thin sections were cut, stained with both uranyl acetate and Reynold's Lead, and examined under the Phillips Tecnai 10 transmission electron microscope. Penile tissues from 4 randomly chosen rats in each subgroups were subjected to electron microscopic examinations.

[4] = Serum testosterone radioimmunoassay; type: in vivo, rat; conditions: castrated rats given subcutaneous testosterone implants
Protocol: as §1

[5] = tested on: major pelvic ganglia (MPG); assay: Nerve fiber outgrowth from cultured major pelvic ganglia; type: cell-based, rat; set-up: Average fiber length / FIBER LENGTH (average lengths of the growing fibers): unit not given here
Protocol: Each freshly isolated MPG was cut into 8 pieces of approximately equal size and each piece was then attached to a Matrigel-coated coverslip. The MPG pieces were cultured in serum-free medium supplemented with phosphate-buffered saline (PBS, control), 50 ng/ml of vascular endothelial growth factor (VEGF), 20 ng/ml of brain-derived neurotrophic factor (BDNF), or VEGF+BDNF. After 2 days of incubation, the ganglial tissues with their outgrowing nerve fibers were stained for the expression of NADPH diaphorase and acetylcholinesterase (AchE).
We have been using several experimental systems to test the efficacy of combination growth factor therapies for impotence. One system employs cultured rat major pelvic ganglia (MPG) that are known to innervate all urogenital organs, including the penis. We discovered that the cultured MPG are able to sprout new nerve fibers (nerve regeneration) from the axonal ends during the first 3 days of culture, especially when treated with VEGF, BDNF, NT-3, or NT-4.

[6] = tested on: Animal Model for Neurogenic Impotence; assay: Maximal intracavernous pressure on electrostimulation after bilateral cavernous nerve freezing (Example 3); type: in vivo, rat; conditions: 8 weeks after bilateral cavernous nerve freezing
From the text: Male Sprague-Dawley rats (N=34; age, 3 months; weight, 350 to 400 gm.) were divided into two groups: sham (N=10) and experimental (N=24). The rats in the sham group underwent periprostatic dissection and identification of bilateral cavernous nerves without other manipulation; those in the experimental groups underwent bilateral cavernous nerve freezing. Several minutes after surgery, half of the experimental animals (LacZ group, N=12) received intracavernous AAV-LacZ injection, and the remainder (BDNF group, N=12) received AAV-BDNF. Half of the rats in each group were sacrificed at week 4 and the rest at week 8 for collection of penile tissue. In all animals, erectile function was assessed by electrostimulation of the cavernous nerves before sacrifice.
Under intraperitoneal pentobarbital sodium anesthesia (50 mg./kg.), each animal was placed on a heating pad to maintain its body temperature at 37° C. […]
At weeks 4 and 8 postoperatively, rats in each group were re-explored for direct electrostimulation of the cavernous nerves before tissue collection. […] Each cavernous nerve was stimulated and intracavernous pressures were measured and recorded with a Macintosh computer programmed with LabVIEW 4.0 software (National Instruments, Austin, Tex.). The pressure for each animal was determined by the mean of both sides.

[7] = tested on: NADPH diaphorase-positive nerve fibers and neurons; assay: NADPH diaphorase staining of penile tissue and major pelvic ganglia; type: in vivo, rat
Protocol: Sections were incubated with 0.1 mM. NADPH, 0.2 mM. nitroblue tetrazolium, 0.2% Triton X-100 in 0.1 M. PO4, pH 8.0, for 60 min. at room temperature. The reaction was terminated by washing in buffer. Slides were then coverslipped with buffered glycerin as the mounting medium.^13
The presence of NADPH diaphorase-positive nerves was evidenced as a blue stain in the major pelvic ganglia, dorsal nerves and cavernous tissue, and the staining pattern was assessed by counting the number of positive neurons in 4 random fields (magnification 400×). The percentage of darkly and lightly stained cells in the major pelvic ganglia was calculated by dividing the number of these cells by the total number of positive cells.

[8] = tested on: Erectile Dysfunction Induced by Hypercholesterolemia in a Rat Model; assay: Erectile function in rats fed a high cholesterol diet (Example 5); type: in vivo; conditions: 6 months cholesterol diet, 4 months after intracavernous treatment
Protocol: Twenty-one Sprague-Dawley rats were used. All rats were fed a 2.5% cholesterol diet with added lard starting at 2 weeks of age for 6 months. The rats were divided into three groups. All groups after two months of a high cholesterol diet underwent serum evaluation of cholesterol and intracavernous injection of saline or treatment. Group 1, the control group, received intracavernous injection of saline, group 2, the VEGF group, received intracavernous injection of 4 ug of VEGF, and group 3, the AAV-BDNF group received 15 ug of BDNF. After six months of cholesterol diet and 4 months of treatment, all rats were subjected to cavernous nerve electrostimulation, cavernosometry with intracavernous papaverine injection, and infusion cavernosometry with heparinized saline to measure erectile function.

[9] = tested on: cavernous nerve injury in rats; assay: Maximal intracavernous pressure after bilateral cavernous nerve freezing (Example 9, VENT); type: in vivo, rat; conditions: 3 months after bilateral cavernous nerve freezing, intracavernous injection
Protocol: (§2) Three months old Sprague-Dawley rats (N=30) were used: 6 underwent a sham operation; 24 underwent bilateral cavernous nerve freezing and then randomly divided into four groups of 6 each. The four groups of rats received intracavernous injection of one of the following: 1) phosphate buffered saline (PBS), 2) VEGF protein (4 μg), 3) adeno-associated virus (AAV)-BDNF, and 4). VEGF+AAV-BDNF. Erectile function was assessed by cavernous nerve electrostimulation 3 months later and samples of penile tissue were obtained for electron microscopy and immunohistochemical studies.

[10] = tested on: blood vessels and nerve fibers in the penis; assay: Penile tissue histology, nNOS staining and electron microscopy (Example 9); type: in vivo, rat; conditions: 3 months after bilateral cavernous nerve freezing
Protocol: as §2

[11] = 50 ng/ml VEGF, 20 ng/ml BDNF, 2 days of incubation

**Q.** Which “Drop Rate in 1 min.” value [1] does the source give for `CCC(=O)O[C@H]1CC[C@H]2[C@@H]3CCC4=CC(=O)CC[C@]4(C)[C@H]3CC[C@]12C` [Testosterone, testosterone propionate, reference compound] here?
**A.** 11.7(+/−16) cm H2O

**Q.** And the “Flaccid ICP” value [1]?
**A.** 28.9 cm H2O

**Q.** What about the “ICP After Papavarine” value [1] of the same molecule?
**A.** 87.7(+/−26) cm H2O

**Q.** What about the “Maintenance Rate” value [1] of the same molecule?
**A.** 0.09(+/−0.1) ml/min

**Q.** What about the “quantity of penile smooth muscle, qualitative” value [2] of the same molecule?
**A.** returns to normal morphology

**Q.** What about the “nerve fibers and myelin sheath appearance” value [3] of the same molecule?
**A.** appeared similar to the sham group

**Q.** And the serum testosterone titer [4]?
**A.** in the normal range

B1: NT-4: neurotrophin-4 (protein, UniProt P34130 81-210, looked up)
Neurotrophin-4: GVSETAPASRRGELAVCDAVSGWVTDRRTAVDLRGREVEVLGEVPAAGGSPLRQYFFETRCKADNAEEGGPGAGGGGCRGVDRRHWVSECKAKQSYVRALTADAQGRVGWRWIRIDTACVCTLLSRTGRA
**Q.** Which “FIBER LENGTH (average lengths of the growing fibers)” value ([5]; 48 hours after culturing) does the source give for B1 here?
**A.** 81

B2: BDNF: brain-derived neurotrophic factor added to MPG culture medium (Examples 7, 8) (protein, UniProt P23560 19-247, looked up)
Neurotrophic factor BDNF …: APMKEANIRGQGGLAYPGVRTHGTLESVNGPKAGSRGLTSLADTFEHVIEELLDEDQKVRPNEENNKDADLYTSRVMLSSQVPLEPPLLFLLEEYKNYLDAANMSMRVRRHSDPARRGELSVCDSISEWVTAADKKTAVDMSGGTVTVLEKVPVSKGQLKQYFYETKCNPMGYTKEGCRGIDKRHWNSQCRTTQSYVRALTMDSKKRIGWRFIRIDTSCVCTLTIKRGR
**Q.** For B2, which “Maximal intracavernous Pressure In Response to Electrostimulation” value [6] is on record?
**A.** 61.3 ± 12.5 cm H2O

**Q.** And the “NADPH Diaphorase-positive Nerve Fibers, Cavernous Tissue” value ([7]; 4 Weeks)?
**A.** 45.5 ± 10.5

**Q.** And the “NADPH Diaphorase-positive Nerve Fibers, Dorsal Nerve” value ([7]; 4 Weeks)?
**A.** 65.5 ± 15.5

**Q.** And the “NADPH Diaphorase-positive Neurons in the Major Pelvic Ganglion, % Dark Stain” value ([7]; 4 Weeks)?
**A.** 62.1 ± 13.1 %

**Q.** And the “NADPH Diaphorase-positive Neurons in the Major Pelvic Ganglion, % Light Stain” value ([7]; 4 Weeks)?
**A.** 38.6 ± 11.8%

**Q.** And the “NADPH Diaphorase-positive Neurons in the Major Pelvic Ganglion, Dark Stain” value ([7]; 4 Weeks)?
**A.** 61.8 ± 23.7

**Q.** What about the “NADPH Diaphorase-positive Neurons in the Major Pelvic Ganglion, Light Stain” value ([7]; 4 Weeks) of the same molecule?
**A.** 33.8 ± 9

**Q.** What about the “NADPH Diaphorase-positive Neurons in the Major Pelvic Ganglion, Total” value ([7]; 4 Weeks) of the same molecule?
**A.** 95.7 ± 22.4

**Q.** And the “NADPH Diaphorase-positive Nerve Fibers, Cavernous Tissue” value ([7]; 8 Weeks)?
**A.** 66.1 ± 15.2

**Q.** And the “NADPH Diaphorase-positive Nerve Fibers, Dorsal Nerve” value ([7]; 8 Weeks)?
**A.** 86.4 ± 12.2

**Q.** And the “NADPH Diaphorase-positive Neurons in the Major Pelvic Ganglion, % Dark Stain” value ([7]; 8 Weeks)?
**A.** 64.3 ± 10.7 %

**Q.** And the “NADPH Diaphorase-positive Neurons in the Major Pelvic Ganglion, % Light Stain” value ([7]; 8 Weeks)?
**A.** 35.6 ± 10.7%

**Q.** And the “NADPH Diaphorase-positive Neurons in the Major Pelvic Ganglion, Dark Stain” value ([7]; 8 Weeks)?
**A.** 69.4 ± 21.1

**Q.** And the “NADPH Diaphorase-positive Neurons in the Major Pelvic Ganglion, Light Stain” value ([7]; 8 Weeks)?
**A.** 38.4 ± 14

**Q.** What about the “NADPH Diaphorase-positive Neurons in the Major Pelvic Ganglion, Total” value ([7]; 8 Weeks) of the same molecule?
**A.** 107.8 ± 23.58

**Q.** What about the “sustained intracavernous pressures during the pharmacologic erection phase of cavernosometry, vs high cholesterol controls” value [8] of the same molecule?
**A.** significantly higher

**Q.** And the AchE staining intensity [5, 11]?
**A.** 1,102±211 IDV

**Q.** What about the NADPH staining intensity [5, 11] of the same molecule?
**A.** 9,376±111 IDV

**Q.** What about the “maximal intracavernous pressure (MICP), mean±SEM” value [9] of the same molecule?
**A.** 69.75±8.54 cm H2O

**Q.** And the “nNOS positive nerve fibers in the dorsal nerves compared to PBS group” value [10]?
**A.** increased number
